Results as given in patent US20210230599, “STEM-LOOP COMPOSITIONS AND METHODS FOR INHIBITING INTERLEUKIN-8” (VITRISA THERAPEUTICS, INC., published 2021).

How the values were obtained:
[1] = molecular target: T1, Interleukin-8 (IL8, CXCL8), C-terminal His-tagged (Homo sapiens, UniProt P10145 SEQ:1-72); test: cell_activity; neutrophil migration, 3 nM IL8, protein limited; conditions: tags: C-terminal His (Sino Biological); stem-loop
Description: (§1) Freshly isolated primary human neutrophil migration stimulated by IL8 was measured using a transwell assay. Neutrophils were isolated from fresh whole human blood using Polymorphprep™ (AXIS Shield) and then were re-suspended in assay buffer (RPMI+0.1% Human Serum Albumin) at 10\hat{ }6 cells/mL. 5 μm Transwell inserts (Corning) were activated with […] in the plate and 100 µL of assay buffer in the transwell at 37° C. 3 nM IL8 and aptamers or controls were incubated for 1 hour, then 200 µL of the aptamer/IL8 mix was added to each well and 100 μL of neutrophils was added to the transwell. Aptamer inhibition was tested at two concentrations: 10 nM and 100 nM. After 45 minutes at 37° C., 100 μL from each well was transferred to a white 96-well plate with 50 μL of lysis buffer. The number of cells that migrated from the transwell to the well was quantified by ATPLITE® Luminescence Assay System (Perkin Elmer). In Table 13, values are normalized to 3 nM IL8 treatment and average between replicates with standard deviation. 3 nM IL8 activity inhibited by at least 50% at 10 nM aptamer concentration is consistent with aptamers having IC₅₀ values of 10 nM or better, as observed for Aptamer 3 and Aptamer 8.
The neutrophil migration assays described in Examples 6 and 18 were used to confirm the activity of Aptamers 8, 212, and 248. Assays were performed as described in those examples.

[2] = molecular target: T1, Interleukin-8 (IL8, CXCL8), C-terminal …; test: TR-FRET; bead flow 11 nM; conditions: tags: C-terminal 6xHis (Sino Biological); label: Alexa Fluor 647
Description: (§2) Aptamers were synthesized and labeled with ALEXA FLUOR® 647, and binding to IL8 was quantified by Time-Resolved Fluorescence Resonance Energy Transfer (TR-FRET). Briefly, 2-fold dilutions of thermally equilibrated aptamers were made in TR-FRET Buffer (50 mM MOPS, pH 7.4, 125 mM NaCl, 5 mM KCl, 50 μM CHAPS, 0.1 mg/mL BSA, 1 mM CaCl₂ and 1 mM MgCl₂). […] of aptamer or control solution was added to 10 μL of 15 nM C-His-tagged-IL8 (Sino Biological) in a black wall half-area plate (Corning). In the same plate, 10 μl of aptamer solution was added to 10 μl of TR-FRET buffer alone to use for background subtraction. 10 μl of 15 nM anti-His-Eu (Perkin Elmer) was added to each well, the plate was covered with a plate seal and subsequently incubated in the dark for 1 hour at room temperature. The plate was read on a Biotek CYTATION™ 5 plate reader. Samples were excited at 330 nm and fluorescent values were collected at 665 nm. […] Apparent Kd values obtained for the fits are calculated as the concentration of half-maximal binding and shown in Table 10, and fit curves as FIG. 6. […] It is also possible that differences may arise due to TR-FRET being a homogenous solution binding assay, while bead binding has immobilized ligand and is non-homogenous, so bound aptamers may dissociate during analysis resulting in higher calculated Kd values.

[3] = molecular target: T1, Interleukin-8 (IL8, CXCL8), C-terminal …; test: competition; competition TR-FRET; S2 shortened; conditions: tags: C-terminal 6xHis (Sino Biological)
Description: (§3) To better understand the sequence requirements and to confirm the stem structures of members of the Aptamer 3 family as determined from sequence covariation analysis from both the primary and secondary (degenerate) selections, a series of variants which included mutations and deletions to the predicted stems were synthesized and screened (Table 24). Activity of each of these variants were tested using a time resolved competition TR-FRET assay in which the labeled parent Aptamer 3 was competed with increasing concentrations of unlabeled variants for binding to IL8 (FIG. 14). Briefly, 2-fold dilutions of thermally equilibrated aptamers were made in TR-FRET Buffer (50 mM MOPS, pH 7.4, 125 mM NaCl, 5 mM KCl, 50 μM CHAPS, 0.1 mg/mL BSA, 1 mM CaCl₂, and 1 mM MgCl₂). 5 μL of aptamer or control solution was added to 5 μl mix of 10 nM C-terminal His-tagged-IL8, 60 nM ALEXA FLUOR® 647-labeled Aptamer, and 5 nM anti-His-Eu (Perkin Elmer) in a black wall low volume 384 well plate (Greiner). For control, 5 μl of 1000-fold excess of unlabeled parent aptamer or 5 μl TR-FRET buffer alone was added to the mix of ALEXA FLUOR® 647-labeled aptamer, His-IL8, and anti-His-Eu. The plate was covered with a plate seal and subsequently incubated in the dark for 1 hour at room temperature. The plate was read on a Biotek CYTATION™ 5 plate reader. […]

[4] = molecular target: T1, Interleukin-8 (IL8, CXCL8), C-terminal …; test: TR-FRET; bead flow 13 nM; conditions: tags: C-terminal 6xHis (Sino Biological); label: Alexa Fluor 647
Description: as §2

[5] = molecular target: T1, Interleukin-8 (IL8, CXCL8), C-terminal …; test: competition; competition TR-FRET; conditions: tags: C-terminal His (Sino Biological); stem-loop
[6] = molecular target: T1, Interleukin-8 (IL8, CXCL8), C-terminal …; test: inhibition; inhibition of IL8 binding to CXCR1 cells, protein limited; neutrophil migration 3 nM; conditions: tags: C-terminal His (Sino Biological); stem-loop
Description: CXCR1 overexpressing cells were used to confirm that aptamers could block IL8 binding to its cognate receptor, CXCR1, in a functional setting. Briefly, CXCR1-overexpressing cells were plated in a 96 well plate and seeded overnight. Serially diluted aptamers and 5 nM IL8 were mixed in cell culture media and applied to cells for 2 hours at 37° C. Media was aspirated, and cells were washed 3× with PBS for 5 minutes. Cells were lysed in Ultra HiBlock Buffer (Perkin Elmer) with gentle agitation. IL8 levels were determined using Ultra TR-FRET (Perkin Elmer).

[7] = molecular target: T1, Interleukin-8 (IL8, CXCL8), C-terminal …; test: cell_activity; neutrophil migration, 3 nM IL8, protein limited; conditions: tags: C-terminal His (Sino Biological); stem-loop; remark: listed apart in the source
Description: as §1
The neutrophil migration assay described in Example 6 was used to further characterize optimized variants of Aptamer 3. […]

[8] = molecular target: T1, Interleukin-8 (IL8, CXCL8), C-terminal …; test: TR-FRET; bead flow 21 nM; conditions: tags: C-terminal 6xHis (Sino Biological); label: Alexa Fluor 647
Description: as §2

[9] = molecular target: T1, Interleukin-8 (IL8, CXCL8), C-terminal …; test: competition; competition TR-FRET; U20A; conditions: tags: C-terminal 6xHis (Sino Biological)
Description: as §3

[10] = molecular target: T1, Interleukin-8 (IL8, CXCL8), C-terminal …; test: TR-FRET; bead flow 19 nM; conditions: tags: C-terminal 6xHis (Sino Biological); label: Alexa Fluor 647
Description: as §2

[11] = molecular target: T1, Interleukin-8 (IL8, CXCL8), C-terminal …; test: TR-FRET; conditions: tags: C-terminal 6xHis (Sino Biological); label: Alexa Fluor 647
Description: as §2

[12] = molecular target: T1, Interleukin-8 (IL8, CXCL8), C-terminal …; test: competition; competition TR-FRET; U20C; conditions: tags: C-terminal 6xHis (Sino Biological)
[13] = molecular target: T1, Interleukin-8 (IL8, CXCL8), C-terminal …; test: competition; competition TR-FRET; conditions: tags: C-terminal 6xHis (Sino Biological)
Description: as §3

[14] = molecular target: T1, Interleukin-8 (IL8, CXCL8), C-terminal …; test: TR-FRET; bead flow 10 nM; conditions: tags: C-terminal 6xHis (Sino Biological); label: Alexa Fluor 647
Description: as §2

B1: Aptamer 248 (ssRNA)
RNA: GCGGUGGGAAAUGUGAGAUGGGUUGCCGC
modifications: 2'-F G except 2'-OMe G at X (XCXXU-GGGA-AAUGU-GAGAU-GGGUU-XCCXC); 2'-OMe A,C,U; 5' C6NH2; 3' idT
- IC50 [1]: 2 nM

B2: Aptamer 2 (ssRNA)
RNA: UAGCGGCCGAAGUUAGCGUACGUUUGCCGGGUACGU
modifications: 2'-F G, 2'-OMe A/C/U, 5' C6NH2, 3' idT
- Kd [2]: 9 nM

B3: Aptamer 45 (ssRNA)
RNA: GCGACGCAGAUUACGGGUAGAGUGGCGCGC
modifications: 2'-F G, 2'-OMe A/C/U, 5' C6NH2, 3' idT
- binding signal [3]: > 10 fold worse than Aptamer 3

B4: Aptamer 23 (ssRNA)
RNA: UUAGCCCUGCCAUUGGGGCAUACUUUGGCCGCACU
modifications: 2'-F G, 2'-OMe A/C/U, 5' C6NH2, 3' idT
- Kd [4]: 12 nM

B5: Aptamer 272 (ssRNA)
RNA: GCGACGGUAGAUUAUGGGCAGUGUGACCGCGC
modifications: 2'-F G except 2'-OMe G at X (XCX-A-CXXU-AX-AU-UAUGGGCAXU-GU-X-ACCX-CXC); 2'-OMe A,C,U; 5' C6NH2; 3' idT
- binding signal [5]: > 10 fold worse than Aptamer 147

B6: Aptamer 278 (ssRNA)
RNA: GCGACGGUAGAUUUCGGGUAGUGUGACCGCGC
modifications: 2'-F G except 2'-OMe G at X (XCX-A-CXXU-AX-AU-UUCGGGUAXU-GU-X-ACCX-CXC); 2'-OMe A,C,U; 5' C6NH2; 3' idT
- binding signal [5]: > 10 fold worse than Aptamer 147

B7: Aptamer 99 (ssRNA)
RNA: UGAUGACGGUAGAUUAUGGGCAGUGUGACCGCAUCU
modifications: 2'-F G; 2'-OMe A,C,U; 5' C6NH2; 3' idT
- IC50 [6]: 4 nM

B8: Aptamer 94 (ssRNA)
RNA: UGAUGACGGUAGAUUUCGGGUAGUGUGACCGCAUCU
modifications: 2'-F G; 2'-OMe A,C,U; 5' C6NH2; 3' idT
- IC50 [7]: 3 nM

B9: Aptamer 13 (ssRNA)
RNA: UCGCUUGUACCUCUGAGAUGUGAGACUAAUGUAGGU
modifications: 2'-F G, 2'-OMe A/C/U, 5' C6NH2, 3' idT
- Kd [8]: 7 nM

B10: Aptamer 59 (ssRNA)
RNA: CGGUGGGAAAUGUGAGAAGGGUUGCCG
modifications: 2'-F G, 2'-OMe A/C/U, 5' C6NH2, 3' idT
- binding result [9]: binds

B11: Aptamer 24 (ssRNA)
RNA: UUGCCCUUUGAUCGUACCGAGGCGGGGAAGUACGAU
modifications: 2'-F G, 2'-OMe A/C/U, 5' C6NH2, 3' idT
- Kd [10]: 9 nM

B12: Aptamer 8 (ssRNA)
RNA: UACGGUGGGAAAUGUGAGAUGGGUUGCCGUAUUUU
modifications: 2'-F G; 2'-OMe A,C,U; 5' C6NH2; 3' idT
- IC50 [1]: 2 nM

B13: Aptamer 18 (ssRNA)
RNA: UGGAUGACAUUCGGGGGCACCAAUCAUCGUCUGCU
modifications: 2'-F G, 2'-OMe A/C/U, 5' C6NH2, 3' idT
- Kd [11]: 13 nM

B14: Aptamer 44 (ssRNA)
RNA: GCGACGUAGAUUACGGGUAGAGUGACGCGC
modifications: 2'-F G, 2'-OMe A/C/U, 5' C6NH2, 3' idT
- binding signal [3]: > 10 fold worse than Aptamer 3

B15: Aptamer 15 (ssRNA)
RNA: UCAGUUGCGGCCCCUGAUACCGAUUUGCCGCCCGGU
modifications: 2'-F G, 2'-OMe A/C/U, 5' C6NH2, 3' idT
- Kd [11]: 22 nM

B16: Aptamer 54 (ssRNA)
RNA: CGGUGGGAAAUGUGAGACGGGUUGCCG
modifications: 2'-F G, 2'-OMe A/C/U, 5' C6NH2, 3' idT
- binding result [12]: binds

B17: Aptamer 193 (ssRNA)
RNA: GGCGACGGUAGAUUUUGGGUAGUGUGACCGCGCC
modifications: 2'-F G, 2'-OMe A/C/U, 5' C6NH2, 3' idT
- binding result [13]: binds

B18: Aptamer 269 (ssRNA)
RNA: GGCGACGGUAGAUUAUGGGCAGUGUGACCGCGCC
modifications: 2'-F G except 2'-OMe G at X (XXCX-A-CXXU-AX-AU-UAUGGGCAGU-GU-G-ACCX-CXCC); 2'-OMe A,C,U; 5' C6NH2; 3' idT
- IC50 [6]: 3 nM

B19: Aptamer 197 (ssRNA)
RNA: GGCGACGGUAGAUUUUGGGCAGUGUGACCGCGCC
modifications: 2'-F G, 2'-OMe A/C/U, 5' C6NH2, 3' idT
- binding result [13]: binds

B20: Aptamer 143 (ssRNA)
RNA: GGCGACGGUAGAUUUCGGGUAGUGUGACCGCGCC
modifications: 2'-F G; 2'-OMe A,C,U; 5' C6NH2; 3' idT
- IC50 [7]: 2 nM

B21: Aptamer 14 (ssRNA)
RNA: UGCGGCCUCCGUUGACUGUUGUAAUGCCGGGACAGU
modifications: 2'-F G, 2'-OMe A/C/U, 5' C6NH2, 3' idT
- Kd [4]: 6 nM

B22: Aptamer 21 (ssRNA)
RNA: UUAAGCGCUGAGACGAGAGAUUAAUGCCGCUUGCCU
modifications: 2'-F G, 2'-OMe A/C/U, 5' C6NH2, 3' idT
- Kd [14]: 7 nM
